Experimental data as given in patent publication US20080248008A1, “Inhibitors of Protein Kinase a Anchoring” (priority 2004, published 2008).

Key:
PKA type I = biological target: T1, PKA type I (Mus musculus, UniProt Q9DBC7); assay: Solid phase immobilization from Y-1 adrenal cell lysate, PKA type I; assay type: binding; conditions: overnight
T1 construct: host or cells: mouse Y-1 adrenocortical cells (lysate)
Method: Solid phase assay and cell lysate. 5×10^6 Y1 cells or 20×10^6 Jurkat T cells lysed in 150 mM NaCl, 1% NP-40, 0.5% deoxycholate, 0.1% SDS and 50 mM Tris HCl (7.8) were incubated overnight at 4° C. with MEME3 and SM3 peptides synthesized on membranes (Autospot, Intavis, AG). The membranes were washed two times for 10 minutes in lysis buffer and thereafter in high salt lysis buffer (1 M NaCl) before boiling in SDS-PAGE loading buffer.
A solid phase immobilization assay (schematic illustration in FIG. 24, left panel) was used to analyse endogenous PKA binding to MEME3. MEME3 and SM3 peptides synthesized in triplicate on membranes were incubated overnight in lysate from Y-1 adrenal cells. Thereafter bound proteins were eluted, subjected to 10% PAGE and analysed by immunoblotting using specific antibodies against PKA-RIα, PKA-C and PKA-RIIα subunits.

RI = biological target: T2, RI (Homo sapiens, UniProt P10644); assay: Co-immunoprecipitation with RI in transfected HEK293 cells; assay type: cell-based; conditions: HEK293 cells transfected with GFP-fusion constructs
T2 construct: endogenous in cells; host or cells: HEK293 (transfected only with GFP-peptide constructs)
Method: HEK293 cells at […] were transfected with ten μg of plasmid DNA (GFP, GFP-MEME3 or GFP-Scrambled MEME3) by using the CaCl2 method. Cells were lysed after 30 hours in lysis buffer (20 mM Hepes, pH 7.5/150 mM NaCl/1 mM EDTA/1% Triton X-100) with protease inhibitors (Complete Mini, EDTA-free tablets, Roche).
Immunoblot analysis. Immunocomplexes and lipid raft fractions were analysed on a 10, 15% or 4-20% PAGE and blotted onto PVDF membranes. The filters were blocked in 5% non-fat dry milk in TBST for 30 minutes at RT, incubated 1 hour at RT (or overnight at 4° C.) with primary antibodies, washed four times 5 minutes in TBST with 0.1% Tween-20 and incubated with a horseradish-peroxidase-conjugated secondary antibody. Blots were developed by using Supersignal West Dura Extended Duration Substrate or Supersignal West Pico substrate (Pierce).
Antibodies. RI or RII were immunoprecipitated with polyclonal antibodies against human RI or human RII at a 3 μg/ml dilution (Santa Cruz Biotechnology). MEME3 or scrambled peptide was immunoprecipitated with 1.5 μl of anti-GFP antiserum (Invitrogen). […]
Immunocomplexes were analysed on 10% PAGE (B and C) or 15% PAGE (D) and subjected to Western blotting using anti-GFP, anti-RI or anti-RII as indicated and blotted onto PVDF membranes. […]

RIIα = biological target: T3, RIIα (Mus musculus, UniProt P12367); assay: Fluorescence polarization, dissociation constant for RII; assay type: binding; conditions: qualitative
T3 construct: His tag; made in house; host or cells: E. coli BL21 (B121 [sic])
T3 sequence (P12367 whole entry): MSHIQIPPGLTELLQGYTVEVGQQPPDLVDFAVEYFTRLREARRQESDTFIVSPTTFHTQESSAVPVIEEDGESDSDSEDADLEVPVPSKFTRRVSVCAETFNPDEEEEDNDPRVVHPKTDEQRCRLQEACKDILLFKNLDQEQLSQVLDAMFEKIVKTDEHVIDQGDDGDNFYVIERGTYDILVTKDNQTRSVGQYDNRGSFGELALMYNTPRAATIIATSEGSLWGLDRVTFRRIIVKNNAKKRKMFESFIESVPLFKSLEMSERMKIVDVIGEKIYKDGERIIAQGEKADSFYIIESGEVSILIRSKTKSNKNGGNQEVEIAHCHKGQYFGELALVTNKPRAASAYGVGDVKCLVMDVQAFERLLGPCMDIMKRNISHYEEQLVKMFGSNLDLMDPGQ
Method: Fluorescence Polarization. FITC-labeled peptides (SynPep, San Diego) that were used for fluorescence polarization studies included MEME3 (LEQYANQLADQIIKEATEK(5-Carboxyfluorescein)-CONH2) and MEME3 scrambled peptide (IEKELAQQYQNADAITLEK(5-Carboxyfluorescein)-CONH2). Peptides (0.5 nM for RI experiments and 1 nM for RII experiments) were suspended to working dilutions in phosphate-buffered saline containing 5 μg/μl BSA, pH 7.0. Increasing concentrations of recombinant bovine RI wt or recombinant murine RII were added to a PBS solution and mixed with each FITC-labeled peptide. Each sample was incubated for 2.5 hours. Fluorescence polarization was measured on a Beacon 2000 (Panvera, Madison, Wis.), following the manufacturer's instructions. Saturation binding curves were generated with PRISM graphing software (GraphPad, San Diego). Dissociation constants (Kd) were calculated from the nonlinear regression curve from averages of minimum three individual experiments.
Protein expression and purification. Human RI, Bovine RI and N-terminal deletions thereof or murine RII was expressed in E. coli B121 by IPTG induction. The RI containing pellet was incubated in lysis buffer (10 mM MOPS, pH 6.5, 100 mM NaCl, 10 μM DTT added protease inhibitors) and sonicated (Branson Sonifier 250) for 1 minute in three intervals at 0° C. […]

**Q.** Which “immobilization of PKA type I (PKA-RIα, PKA-C)” value (PKA type I) does the source give for CC[C@H](C)[C@H](NC(=O)[C@H](CCC(N)=O)NC(=O)[C@H](CC(=O)O)NC(=O)[C@H](C)NC(=O)[C@H](CC(C)C)NC(=O)[C@H](CCC(N)=O)NC(=O)[C@H](CC(N)=O)NC(=O)[C@H](C)NC(=O)[C@H](Cc1ccc(O)cc1)NC(=O)[C@H](CCC(N)=O)NC(=O)[C@H](CCC(=O)O)NC(=O)[C@@H](N)CC(C)C)C(=O)N[C@H](C(=O)N[C@@H](CCCCN)C(=O)N[C@@H](CCC(=O)O)C(=O)N[C@@H](C)C(=O)N[C@H](C(=O)N[C@@H](CCC(=O)O)C(=O)N[C@@H](CCCCNC(=O)c1ccc2c(c1)C(=O)OC21c2ccc(O)cc2Oc2cc(O)ccc21)C(N)=O)[C@@H](C)O)[C@@H](C)CC [MEME3] here?
**A.** Only PKA type I was immobilized

**Q.** And the “co-precipitation with RI” value (RI)?
**A.** Co-precipitation of MEME3 with RI

**Q.** Which results are given for “IEKELAQQYQNADAITLE [SM3, scrambled MEME3 negative control peptide, reference compound]”?
**A.** immobilization of PKA type I (PKA-RIα, PKA-C) (PKA type I): Neither PKA-RIα, PKA-C nor PKA-RIIα were immobilized; co-precipitation with RI (RI): did not co-precipitate with RI; interaction with RII subunit (RIIα): did not interact with either R subunit
